In patent US20210388110A1 (published 2021):

B1: TR01H045-E22Hh/none-Hi-Kn010G3/L0000-k0 (antibody, human IgG1, kappa, L234A L235A, N297A)
heavy: QVQLVESGGGLVQPGRSLRLSCSASGFTFSNAWMHWVRQAPGKGLEWVAQIKDKSQNYATYYAESVKGRFTISRADSKNSIYLQMNSLKTEDTAVYYCRYVHYSASYGVDAWGQGTTVTVSSASTKGPSVFPLAPSSKSTSGGTAALGCLVKDYFPEPVTVSWNSGALTSGVHTFPAVLQSSGLYSLSSVVTVPSSSLGTQTYICNVNHKPSNTKVDKKVEPKSCDKTHTCPPCPAPEAAGGPSVFLFPPKPKDTLMISRTPEVTCVVVDVSHEDPEVKFNWYVDGVEVHNAKTKPREEQYASTYRVVSVLTVLHQDWLNGKEYKCKVSNKALPAPIEKTISKAKGQPREPQVYTLPPSRCELTKNQVSLSCAVKGFYPSDIAVEWESNGQPENNYKTTPPVLDSDGSFFLVSKLTVDKSRWQQGNVFSCSVMHEALHNHYTQKSLSLSPDYKDDDDK
chain: EPKSSDKTHTCPPCPAPELLGGPSVFLFPPKPKDTLMISRTPEVTCVVVDVSHEDPEVKFNWYVDGVEVHNAKTKPREEQYNSTYRVVSVLTVLHQDWLNGKEYKCKVSNKALPAPIEKTISKAKGQPREPQVCTLPPSRDELTKNQVSLWCLVKGFYPSDIAVEWESNGQPENNYKTTPPVLDSDGSFFLYSKLTVDKSRWQQGNVFSCSVMHEALHNRYTQKSLSLSP
light: DIVMTQSPLSLPVTPGEPASISCRSSQSLVHSNRNTYLHWYQQKPGQAPRLLIYKVSNRFSGVPDRFSGSGSGTDFTLKISRVEAEDVGVYYCGQGTQVPYTFGQGTKLEIKRTVAAPSVFIFPPSDEQLKSGTASVVCLLNNFYPREAKVQWKVDNALQSGNSQESVTEQDSKDSTYSLSSTLTLSKADYEKHKVYACEVTHQGLSSPVTKSFNRGEC
notes: single-arm
B2: TR01H046-E22Hh/none-Hi-Kn010G3/L0000-k0 (antibody, human IgG1, kappa, L234A L235A, N297A)
heavy: QVQLVESGGGLVQPGRSLRLSCSASGFTFSNAWMHWVRQAPGKGLEWVAQIKDKSQNYATYYAESVKGRFTISRADSKNSIYLQMNSLKTEDTAVYYCRYVHYSASYGVDYWGQGTTVTVSSASTKGPSVFPLAPSSKSTSGGTAALGCLVKDYFPEPVTVSWNSGALTSGVHTFPAVLQSSGLYSLSSVVTVPSSSLGTQTYICNVNHKPSNTKVDKKVEPKSCDKTHTCPPCPAPEAAGGPSVFLFPPKPKDTLMISRTPEVTCVVVDVSHEDPEVKFNWYVDGVEVHNAKTKPREEQYASTYRVVSVLTVLHQDWLNGKEYKCKVSNKALPAPIEKTISKAKGQPREPQVYTLPPSRCELTKNQVSLSCAVKGFYPSDIAVEWESNGQPENNYKTTPPVLDSDGSFFLVSKLTVDKSRWQQGNVFSCSVMHEALHNHYTQKSLSLSPDYKDDDDK
chain: EPKSSDKTHTCPPCPAPELLGGPSVFLFPPKPKDTLMISRTPEVTCVVVDVSHEDPEVKFNWYVDGVEVHNAKTKPREEQYNSTYRVVSVLTVLHQDWLNGKEYKCKVSNKALPAPIEKTISKAKGQPREPQVCTLPPSRDELTKNQVSLWCLVKGFYPSDIAVEWESNGQPENNYKTTPPVLDSDGSFFLYSKLTVDKSRWQQGNVFSCSVMHEALHNRYTQKSLSLSP
light: DIVMTQSPLSLPVTPGEPASISCRSSQSLVHSNRNTYLHWYQQKPGQAPRLLIYKVSNRFSGVPDRFSGSGSGTDFTLKISRVEAEDVGVYYCGQGTQVPYTFGQGTKLEIKRTVAAPSVFIFPPSDEQLKSGTASVVCLLNNFYPREAKVQWKVDNALQSGNSQESVTEQDSKDSTYSLSSTLTLSKADYEKHKVYACEVTHQGLSSPVTKSFNRGEC
notes: single-arm
B3: TR01H047-E22Hh/none-Hi-Kn010G3/L0000-k0 (antibody, human IgG1, kappa, L234A L235A, N297A)
heavy: QVQLVESGGGLVQPGRSLRLSCAASGFTFSNAWMHWVRQAPGKGLEWVAQIKDKSNNYATYYAESVKGRFTISRDDSKNSIYLQMNSLKTEDTAVYYCRYVHYSASYGVDIWGQGTTVTVSSASTKGPSVFPLAPSSKSTSGGTAALGCLVKDYFPEPVTVSWNSGALTSGVHTFPAVLQSSGLYSLSSVVTVPSSSLGTQTYICNVNHKPSNTKVDKKVEPKSCDKTHTCPPCPAPEAAGGPSVFLFPPKPKDTLMISRTPEVTCVVVDVSHEDPEVKFNWYVDGVEVHNAKTKPREEQYASTYRVVSVLTVLHQDWLNGKEYKCKVSNKALPAPIEKTISKAKGQPREPQVYTLPPSRCELTKNQVSLSCAVKGFYPSDIAVEWESNGQPENNYKTTPPVLDSDGSFFLVSKLTVDKSRWQQGNVFSCSVMHEALHNHYTQKSLSLSPDYKDDDDK
chain: EPKSSDKTHTCPPCPAPELLGGPSVFLFPPKPKDTLMISRTPEVTCVVVDVSHEDPEVKFNWYVDGVEVHNAKTKPREEQYNSTYRVVSVLTVLHQDWLNGKEYKCKVSNKALPAPIEKTISKAKGQPREPQVCTLPPSRDELTKNQVSLWCLVKGFYPSDIAVEWESNGQPENNYKTTPPVLDSDGSFFLYSKLTVDKSRWQQGNVFSCSVMHEALHNRYTQKSLSLSP
light: DIVMTQSPLSLPVTPGEPASISCRSSQSLVHSNRNTYLHWYQQKPGQAPRLLIYKVSNRFSGVPDRFSGSGSGTDFTLKISRVEAEDVGVYYCGQGTQVPYTFGQGTKLEIKRTVAAPSVFIFPPSDEQLKSGTASVVCLLNNFYPREAKVQWKVDNALQSGNSQESVTEQDSKDSTYSLSSTLTLSKADYEKHKVYACEVTHQGLSSPVTKSFNRGEC
notes: single-arm
B4: TR01H048-E22Hh/none-Hi-Kn010G3/L0000-k0 (antibody, human IgG1, kappa, L234A L235A, N297A)
heavy: QVQLVESGGGLVQPGRSLRLSCAASGFTFSNAWMHWVRQAPGKGLEWVAQIKDKSQNYATYYAESVKGRFTISRDDSKNSIYLQMNSLKTEDTAVYYCRYVHYSASYGVDIWGQGTTVTVSSASTKGPSVFPLAPSSKSTSGGTAALGCLVKDYFPEPVTVSWNSGALTSGVHTFPAVLQSSGLYSLSSVVTVPSSSLGTQTYICNVNHKPSNTKVDKKVEPKSCDKTHTCPPCPAPEAAGGPSVFLFPPKPKDTLMISRTPEVTCVVVDVSHEDPEVKFNWYVDGVEVHNAKTKPREEQYASTYRVVSVLTVLHQDWLNGKEYKCKVSNKALPAPIEKTISKAKGQPREPQVYTLPPSRCELTKNQVSLSCAVKGFYPSDIAVEWESNGQPENNYKTTPPVLDSDGSFFLVSKLTVDKSRWQQGNVFSCSVMHEALHNHYTQKSLSLSPDYKDDDDK
chain: EPKSSDKTHTCPPCPAPELLGGPSVFLFPPKPKDTLMISRTPEVTCVVVDVSHEDPEVKFNWYVDGVEVHNAKTKPREEQYNSTYRVVSVLTVLHQDWLNGKEYKCKVSNKALPAPIEKTISKAKGQPREPQVCTLPPSRDELTKNQVSLWCLVKGFYPSDIAVEWESNGQPENNYKTTPPVLDSDGSFFLYSKLTVDKSRWQQGNVFSCSVMHEALHNRYTQKSLSLSP
light: DIVMTQSPLSLPVTPGEPASISCRSSQSLVHSNRNTYLHWYQQKPGQAPRLLIYKVSNRFSGVPDRFSGSGSGTDFTLKISRVEAEDVGVYYCGQGTQVPYTFGQGTKLEIKRTVAAPSVFIFPPSDEQLKSGTASVVCLLNNFYPREAKVQWKVDNALQSGNSQESVTEQDSKDSTYSLSSTLTLSKADYEKHKVYACEVTHQGLSSPVTKSFNRGEC
notes: single-arm
B5: TR01H049-E22Hh/none-Hi-Kn010G3/L0000-k0 (antibody, human IgG1, kappa, L234A L235A, N297A)
heavy: QVQLVESGGGLVQPGRSLRLSCAASGFTFSNAWMHWVRQAPGKGLEWVAQIKDKSQNYATYYAESVKGRFTISRDDSKNSIYLQMNSLKTEDTAVYYCRYVHYSASYGVDAWGQGTTVTVSSASTKGPSVFPLAPSSKSTSGGTAALGCLVKDYFPEPVTVSWNSGALTSGVHTFPAVLQSSGLYSLSSVVTVPSSSLGTQTYICNVNHKPSNTKVDKKVEPKSCDKTHTCPPCPAPEAAGGPSVFLFPPKPKDTLMISRTPEVTCVVVDVSHEDPEVKFNWYVDGVEVHNAKTKPREEQYASTYRVVSVLTVLHQDWLNGKEYKCKVSNKALPAPIEKTISKAKGQPREPQVYTLPPSRCELTKNQVSLSCAVKGFYPSDIAVEWESNGQPENNYKTTPPVLDSDGSFFLVSKLTVDKSRWQQGNVFSCSVMHEALHNHYTQKSLSLSPDYKDDDDK
chain: EPKSSDKTHTCPPCPAPELLGGPSVFLFPPKPKDTLMISRTPEVTCVVVDVSHEDPEVKFNWYVDGVEVHNAKTKPREEQYNSTYRVVSVLTVLHQDWLNGKEYKCKVSNKALPAPIEKTISKAKGQPREPQVCTLPPSRDELTKNQVSLWCLVKGFYPSDIAVEWESNGQPENNYKTTPPVLDSDGSFFLYSKLTVDKSRWQQGNVFSCSVMHEALHNRYTQKSLSLSP
light: DIVMTQSPLSLPVTPGEPASISCRSSQSLVHSNRNTYLHWYQQKPGQAPRLLIYKVSNRFSGVPDRFSGSGSGTDFTLKISRVEAEDVGVYYCGQGTQVPYTFGQGTKLEIKRTVAAPSVFIFPPSDEQLKSGTASVVCLLNNFYPREAKVQWKVDNALQSGNSQESVTEQDSKDSTYSLSSTLTLSKADYEKHKVYACEVTHQGLSSPVTKSFNRGEC
notes: single-arm

What follows are binders tested against T1, soluble human CD3ε chain (human, UniProt P07766 23-126, limits assumed) (assay: SPR (Biacore)).
T1 construct: the text says soluble human CD3ε chain; also called human CD3 epsilon chain
T1 sequence (P07766 23-126 limits assumed): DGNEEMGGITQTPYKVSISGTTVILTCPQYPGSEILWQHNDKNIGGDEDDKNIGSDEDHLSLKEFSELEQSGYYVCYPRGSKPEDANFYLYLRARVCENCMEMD

B1 and B2 are within 1.5-fold of each other in Kd: 52.2 nM for the first, 42.3 nM for the second.

Compared with B3, B4 is 2.2-fold higher in Kd: 20.4 nM for the first, 45.2 nM for the second. The first binds more tightly here.

B5 gave a Kd of 67.9 nM.
